Experimental data taken from US20240327535A1 (EISAI R AND D MANAGEMENT, published 2024).
Numbering of substitutions follows the chain as printed.

T1: extracellular domain of human BCMA (human, UniProt Q02223 1-54)
T1 construct: amine-linked to Octet AR2G tips; also called hsBCMA; BCMA (human)
T1 sequence: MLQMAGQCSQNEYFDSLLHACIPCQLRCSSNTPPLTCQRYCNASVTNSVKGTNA

B1: AB200-(2Vk30)_R2-VH-v30 (Fab, V domains shown)
VH: QVQLVQSGAEVKKPGSSVKVSCKASGGTFSNYWIHWVRQAPGQGLEWMGATYRSHSDTNYAQKFKSRVTITADKSTSTAYMELSSLRSEDTAVYYCARGAIYHGYDVIENWGQGTLVTVSS
VL: DIQMTQSPSSLSASVGDRVTITCRASQSISSYLNWYQQKPGKAPKLLIYATSNLQIGVPSRFSGSGSGTDFTLTISSLQPEDFATYYCQQYRRIPWTFGQGTKLEIKR
B2: AB200-(2Vk31)_R2-CDR2-hs-v1 (Fab, V domains shown)
VH: QVQLVQSGAEVKKPGSSVKVSCKASGGTFTNYWIHWVRQAPGQGLEWMGGIIPIFGTANYAQKFQGRVTITADKSTSTAYMELSSLRSEDTAVYYCARGAIFHGYDVIDNWGQGTLVTVSS
VL: B1 VL with Y91F, I94L
B3: AB200-(2Vk31)_R2-CDR2-hs-v3 (Fab, V domains shown)
VH: B2 VH with I101V, F102Y
VL: B1 VL with Y91F, I94L
B4: AB200-(2Vk31)_R2-VH-v5 (Fab, V domains shown)
VH: B1 VH with S30T, A50G, N59Y, A61N, Q62E, Y102F, E109D
VL: B1 VL with Y91F, I94L
B5: AB200-(2Vk31)_R2-VH-v12 (Fab, V domains shown)
VH: B1 VH with F29Y, D57T, N59Y, A61N, F64Y, Y105F, E109D
VL: B1 VL with Y91F, I94L
B6: AB200-(2Vk31)_R2-VH-v33 (Fab, V domains shown)
VH: B1 VH with A61N, Q62E
VL: B1 VL with Y91F, I94L
B7: AB200-(2Vk31)_R2-VH-v29 (Fab, V domains shown)
VH: B1 VH with D57T, N59Y, A61N, Q62E, Y105F, E109D
VL: B1 VL with Y91F, I94L
B8: AB200-(2Vk31)_R2-VH-v47 (Fab, V domains shown)
VH: B1 VH with F29Y, S54I, D57T, N59Y, A61N, Q62E, Y102F, E109D
VL: B1 VL with Y91F, I94L
B9: AB200-(2Vk31)_R2-VH-v42 (Fab, V domains shown)
VH: B1 VH with S30T, A50G, S54I, N59Y, A61N, F64Y, Y102F, E109D
VL: B1 VL with Y91F, I94L
B10: AB200-(2Vk31)_R2-VH-v66 (Fab, V domains shown)
VH: B1 VH with S54I, D57T, N59Y, A61N, F64Y, Y102F, E109D
VL: B1 VL with Y91F, I94L
B11: AB200-(2Vk31)_R2-VH-v50 (Fab, V domains shown)
VH: B1 VH with F29Y, A50G, S54I, A61N
VL: B1 VL with Y91F, I94L
B12: AB200-(2Vk31)_R2-VH-v34 (Fab, V domains shown)
VH: B1 VH with H55Q, N59Y
VL: B1 VL with Y91F, I94L
B13: AB200-(2Vk31)_R2-VH-v73 (Fab, V domains shown)
VH: B1 VH with S54I, N59Y, F64Y, I101V, E109D
VL: B1 VL with Y91F, I94L
B14: AB200-(2Vk31)_R2-VH-v17 (Fab, V domains shown)
VH: B1 VH with T28S, H55Q, N59Y, Y102F, E109D
VL: B1 VL with Y91F, I94L
B15: AB200-(2Vk31)_R2-VH-v18 (Fab, V domains shown)
VH: B1 VH with T28S, N59Y, Q62E, I101V, E109D
VL: B1 VL with Y91F, I94L
B16: AB200-(2Vk31)_R2-VH-v57 (Fab, V domains shown)
VH: B1 VH with A50G, S54I, D57T, N59Y, A61N, K74E, I101V, E109D
VL: B1 VL with Y91F, I94L
B17: AB200-(2Vk31)_R2-VH-v25 (Fab, V domains shown)
VH: B1 VH with D57T, A61N, Y105F, E109D
VL: B1 VL with Y91F, I94L
B18: AB200-(2Vk31)_R2-VH-v21 (Fab, V domains shown)
VH: B1 VH with A50G, N59Y, Y102F, E109D
VL: B1 VL with Y91F, I94L

target: T1, extracellular domain of human BCMA; test: Octet BLI; Fab 200 nM

B1 gave a Kd of 50.4 nM.

target: T2, extracellular domain of rhesus monkey BCMA (rhesus monkey, UniProt F7FFA0 1-53); test: Octet BLI; Fab 200 nM
T2 construct: extracellular domain; also called RhBCMA
T2 sequence (F7FFA0 entry or part of it): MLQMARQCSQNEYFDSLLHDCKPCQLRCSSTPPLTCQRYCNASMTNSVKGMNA

For B1, the Kd was 141 nM.

target: T1, extracellular domain of human BCMA; test: Octet BLI; Fab 200 nM; remark: another data set of the same source

Compared with B2, B3 is 1.9-fold lower in Kd: 241 nM for the first, 126 nM for the second.

First: B4
Second: B5
The Kd of the first is 3.6-fold lower: 3.65 nM for the first, 13 nM for the second. The first binds more tightly here.

Going from B6 to B7, the Kd falls from 46 nM to 6.02 nM (7.6-fold).

Compared with B8, B9 is 4.1-fold lower in Kd: 17.7 nM for the first, 4.33 nM for the second. The second binds more tightly here.

First: B10
Second: B11
The Kd of the first is 6.6-fold lower: 13.7 nM for the first, 90 nM for the second.

First: B12
Second: B13
The Kd of the first is 3.9-fold higher: 5.13 nM for the first, 1.32 nM for the second.

Compared with B14, B15 is 1.6-fold lower in Kd: 5.77 nM for the first, 3.55 nM for the second. The second binds more tightly here.

Going from B16 to B17, the Kd rises from 11.9 nM to 32.8 nM (2.8-fold).

With B18 the Kd was 10.7 nM.

target: T2, extracellular domain of rhesus monkey …; test: Octet BLI; Fab 200 nM; remark: another data set of the same source

First: B2
Second: B3
The Kd of the first is 2.1-fold higher: 448 nM for the first, 216 nM for the second.

Going from B4 to B5, the Kd rises from 10.4 nM to 18.4 nM (1.8-fold).

First: B6
Second: B7
The Kd of the first is 5.4-fold higher: 50.4 nM for the first, 9.34 nM for the second. The second binds more tightly here.

B8 and B9 are within 1.5-fold of each other in Kd: 15.9 nM for the first, 23.5 nM for the second.

Going from B10 to B11, the Kd rises from 20.8 nM to 196 nM (9.4-fold).

Going from B12 to B13, the Kd falls from 18 nM to 7.72 nM (2.3-fold). The second binds more tightly here.

B14 and B15 are within 1.5-fold of each other in Kd: 16.9 nM for the first, 14.9 nM for the second.

Compared with B16, B17 is 2.8-fold higher in Kd: 20.8 nM for the first, 57.3 nM for the second.

Work on B18 yielded a Kd of 29.7 nM.
